Patent US6500431B1, “Inhibitors of angiogenesis and tumor growth” (University of Southern California, priority 1998, dated 2002)
Entries after “also recorded” stand apart in the source; their conditions may differ.

How the values were obtained:
[1] = system: CD34+/Flk-1+ cells from cord blood; assay: Growth of CD34+/Flk-1+ progenitors on fibronectin coated dishes; assay type: cell-based, human; conditions: 50 ng/mL Saposin B
Source text: A bone marrow derived human CD34+/Flk-1+ progenitor cell can be mobilized into the blood stream in response to tumor induced signals such as VEGF and cytokine production. These cells can target to sites of angiogenesis where they mature into activated endothelial cells and thus contribute to the generation of new blood vessels at the tumor site. By blocking the production of these cells or by targeting these cells (i.e., the CD34+/Flk-1+ progenitors and the activated endothelial cell they can become), the angiogenesis/vasculogenesis required for tumor growth can be reduced or halted. […] The adherent cells take on a spindle-shaped morphology characteristic of the activated vascular endothelial cells typical of the angiogenic process. These cells express endothelial-specific markers including factor VIII, ulex europaeus agglutinin-1 (UEA-1), endothelial constitutive nitric oxide synthase (ecNOS), and E selectin. Further, when these cells (peripheral blood Flk+ progenitors) are infused into mice, they incorporate into newly formed blood vessels at site of injury. These observation identify CD34+/Flk-1+ bone marrow derived progenitors as a putative precursor to vascular endothelial cells. Preventing these cells from colonizing at distal sites of angiogenesis in tumors has enormous implication for the treatment of tumors. […]

[2] = system: chicken allantoic membrane (CAM); assay: Chicken allantoic membrane (CAM) angiogenesis assay; assay type: in vivo; conditions: induced by VEGF or bFGF; 48 hours
Experimental: In order to test anti-angiogenic activity, chicken allantoic membrane (CAM) assays were performed with recombinant Saposin B. Ten day old fertilized chicken eggs were prepared for assay by creating a window in the egg shell, and placing filter paper discs saturated with VEGF or bFGF as positive controls, test compounds, or carrier buffer (negative controls) on the allantoic membrane. The membranes were harvested after 48 hours and analyzed using an Olympus stereomicroscope. The number of branching blood vessels that infiltrated under the discs were counted and photographed. Eight CAMs were studied for test group, and the experiments were repeated at least twice.

[3] = system: Human bone marrow cells and peripheral blood mononuclear cells; assay: Stem cell clonogenic assays in methylcellulose; assay type: cell-based
Experimental: Human bone marrow cells and peripheral blood mononuclear cells were harvested from a subject after the administration of high doses of cyclophosphamide and G-CSF. Stem cell clonogenic assays in methylcellulose were performed with IL-3, erythropoietin, and VEGF (10 ng/mL, and 100 ng/mL). VEGF was used to determine if there are progenitor cells with self replication capacity but without adherence to extracellular matrix such as fibronectin. It was also desirable to determine if Saposin B was toxic to endothelial cell specific progenitors for hematopoietic (myeloid or erythroid) lineage cells.
These colonies contained mixture of cells indicating more than one cell lineage generated in response to VEGF. The colonies also contained spindle shaped cells which mark the presence of VEGF receptors.

[4] = system: KS Y-1 cells; assay: KS cell migration assay, fibronectin-coated transwell; assay type: cell-based; conditions: chemotaxis induced by VEGF or bFGF
Experimental: The assays were done in double chamber wells separated by […] membrane. Chemotaxis was induced by bFGF (25 ng/mL) in the lower chamber. Endothelial cells or KS cells (5×10^4/mL) were placed in the upper chamber in the presence and absence of test polypeptides. Taxol at 10 ng/mL was used as a known inhibitor of migration. Cell migration across the membrane was quantitated after an overnight incubation.
Angiogenesis is mediated by complex biochemical processes including degradation of the basement membrane under existing blood vessel endothelial cells, followed by proliferation and migration of endothelial cells, followed by formation of capillary loops, and recruitment of vascular smooth muscle cells to encase the newly formed vessels and provide stability. KS and endothelial cell migration in the presence of Saposin B was studied in transwell culture plates with 8 μm pore membranes (Costar, Cambridge, Mass.).
Briefly, wells were coated with fibronectin (25 μg/mL) overnight, and endothelial cells or KS cells were plated in the upper chamber with 100 μL of DMEM/0.4% FCS. 500 μL of DMEM/0.4% FCS was added to the lower chamber and incubated at 37° C. for one hour. The test polypeptides, at various concentrations, were added to the upper chamber, and chemotactic agents (VEGF or bFGF at 20 ng/mL) were added to the lower cell-culture chambers. The plates were incubated for 5 hr at 37° C. and the cells crossing the fibronectin-coated membrane were counted after wiping the cells off the membrane in the upper chamber with a cotton swab.
The cells that traversed the membrane were fixed with Diff-Quik stain according to the manufacturer's instruction (Dade Diagnostics Inc., Aguada, PR). The cells were counted under a microscope at 320× in four randomly selected fields. The experiments were done in duplicate and repeated at least three times.

[5] = system: CD34+ cord blood derived cells; assay: Viability of CD34+ cord blood derived cells; assay type: cell-based, human
Source text: However in the presence of Saposin B, CD34^+/Flk-1^+ progenitor […] was inhibited.
Saposin B was found not to be toxic to most CD34^+ cord blood derived cells, since the difference in viability of Saposin B treated CD34^+ cells was only around 20% when compared to control cells. Thus Saposin B not only targets fully differentiated and activated endothelial cells, but also a circulating progenitor, previously shown to target angiogenic sites.

[6] = system: KS-SLK or KS Y-1 cells; assay: KS-SLK or KS Y-1 tumors in nude mice; assay type: in vivo; conditions: daily subcutaneous 1, 10 and 20 mg/kg after one week of tumor development
Experimental: In order to determine the anti-angiogenic activity of the recombinant Saposin B, tumor cells were implanted in immuno-deficient mice and treated with either Saposin B or buffer alone.
Nude mice were injected with 2×10^6 KS-SLK or KS Y-1 cells subcutaneously in a total volume of 100 μL. After one week of tumor development, the mice were injected subcutaneously daily with either PBS or Saposin B at concentrations of 1, 10 and 20 mg/kg for a total protein concentration of […]. The tumor size was measured three times a week. The results represent the median of 4 mice in each group.

[7] = system: KS Y-1 tumor; assay: Established KS tumors in mice; assay type: in vivo
Experimental: FIG. 5: Effect of two daily doses of Saposin B on growth of an established KS Y-1 tumor. The arrow marks initiation of daily subcutaneous dosing.
In further experiments, KS tumors were allowed to grow for five days before treatment with Saposin B (1 and 5 mg/kg daily at a distal site from the timor). In control mice, tumors grew to a weight of 555±mg. […] Tumors excised at the conclusion of the experiments were also examined for apoptosis, blood vesel density, andmitotic index. […] Thus, contrary to the results in vitro, Saposin B has an inhibitory effect against non-KS tumors.

[8] = system: endothelial cells (HUVEC); assay: Growth inhibition of endothelial cells; assay type: cell-based
Experimental: FIG. 1D: Activity of n-terminus decapeptide (DVCQDCIQMV; SEQ ID NO 21).
FIG. 1E: Activity of N-terminus pentapeptide (DVCQC; SEQ ID NO: 28).
By SDS-PAGE, the bacterial product was smaller than the eukaryotic protein. Because prokaryotically expressed proteins are not glycosylated, the difference in molecular weights probably represents the presence of carbohydrate in the eukaryotic protein. Recombinant proteins were then tested in KS, endothelial and control cell lines. Activity was found only in KS cell lines and endothelial cells.

B1: Saposin B: polypeptide fragment of Prosaposin (positions 190 to 269), SEQ ID NO:2; recombinantly expressed (protein)
chain: GDVCQDCIQMVTDIQTAVRTNSTFVQALVEHVKEECDRLGPGMADICKNYISQYSEIAIQMMMHMQPKEICALVGFCDEVK
With B1 the “CD34+/Flk-1+ progenitor growth” value [1] was “inhibited”, the “angiogenesis (number of blood vessel branches) in CAMs” value [2] was “effectively blocked angiogenesis; also recorded: inhibited by Saposin B in a dose-dependent fashion” and the “cytotoxic effect on colonies developed with IL-3 or erythropoietin” value [3] was “no cytotoxic effect”. For the same molecule, the “effect on colonies generated with VEGF” value ([3]; VEGF 10 ng/mL and 100 ng/mL) was “loss of spindle shaped cells”, the “inhibition of KS cell migration” value [4] was “compete inhibition of cell migration” and the “difference in viability of treated CD34+ cells compared to control cells” value [5] was “around 20%”. For the same molecule, the tumor growth [6] was “markedly retarded”, the “apoptosis in excised tumors” value ([7]; 1 and 5 mg/kg daily) was “increase in apoptosis” and the “blood vessel density in excised tumors” value ([7]; 1 and 5 mg/kg daily) was “decrease in blood vessel density”. The “weights of excised tumors relative to controls” value ([7]; treatment from day five, 1 and 5 mg/kg daily at a distal site) was “approximately 23%”, the “growth inhibition of endothelial cells” value ([8]; FIG. 1, 1D, 1E) was “dose dependent growth inhibition” and the “growth inhibition of proliferating versus quiescent endothelial cells (HUVEC)” value ([8]; FIG. 1B) was “Only proliferating and not quiescent endothelial cells (HUVEC) show dose dependent growth inhibition”.
